This is an account of results in doi:10.1101/2025.03.21.644400.

Usually stoichiometry N stands for the number of molecules, sites or subunits per partner or assembly.

The experiment deals with MIYEI. Briefly: crystal structure.

The substance MIYEI yielded a stoichiometry N of 2.
